{
  "source": "patent US8992886B2",
  "about": "“Cyclic peptide analogues for non-invasive imaging of pancreatic beta-cells” (Board of Regents, the University of Texas System, priority 2009, dated 2015)",
  "key": {"GLP-1R [1]": {"target": "T1, GLP-1R (Homo sapiens, UniProt P43220)", "conditions": "DPP-IV degradation fragment; cited from earlier work"}, "GLP-1R [2]": {"target": "T1, GLP-1R", "assay": "cAMP formation by radioimmunoassay in transfected HEK293 cells", "assay_type": "cell-based", "design": "expressed in transfected cells; host or cells: HEK293", "conditions": "compared with GLP-1", "protocol": "Twelve cyclic GLP-1 analogues containing lactam bridges in various regions (from the N- to C-terminal regions) were designed and synthesized. The cyclic peptides were prepared by following standard solid-phase peptide synthesis protocol with N-Fmoc/^tBu protecting group strategy. The side chains of a lysine and a glutamic acid that would form a lactam bridge were protected with allyl groups which were selectively removed by using Pd^0 catalyst and an allyl scavenger like N,N-dimethylbarbituric acid (29). The released free amine and carboxylic acid were coupled on resin using HBTU or BOP to form a cyclic peptide. […] In addition, cAMP formation by the peptides was determined by radioimmunoassay using the transfected HEK293 cells to examine agonistic activity. […] (SEQ ID No: 5) and […] R (SEQ ID No: 6)."}, "[3]": {"system": "freshly isolated rat islets", "assay": "Displacement binding assay of ^125I-labeled peptide on isolated islets", "conditions": "^125I-labeled (at Tyr^19)", "source_text": "(§1) This presumably resulted from the degradation of the peptide by DPP-IV since it has Ala at position 8. In order to overcome this problem, we have replaced the L-Ala with a D-Ala. Furthermore, due to high stomach uptake likely resulting from in vivo de-iodination of the ^125I-labeled peptide, a conventional metal chelator. […] The purified conjugates were labeled with either ^64Cu or ^111In in high radiochemical yields."}, "[4]": {"assay": "Tissue distribution of ^125I-labeled peptide in normal Sprague-Dawley rats", "assay_type": "in vivo", "source_text": "as §1"}},
  "note": "Ends that are not written are not given here.",
  "data": [
    {"substance": "GLP-1(9-36) amide", "values": [
      {"measurement": "receptor affinity and biological activity", "setting": "GLP-1R [1]", "result": "lost receptor affinity and biological activity nearly completely"}
    ]},
    {"substance": "HAEGTFTSDVSSYLEGQAAKEFIEWLVKG R (chain 1 HAEGTFTSDVSSYLEGQAAKEFIEWLVKGR; chain 2 HAEGTFTSDVSSYLEGQAAKEFIEWLVKGR; lactam (positions not given here); ends not checked; also: lactam bridge, positions not given here) [SEQ ID No: 6, cyclic GLP-1 analogue with a lactam bridge]", "values": [
      {"measurement": "receptor activation (cAMP formation)", "setting": "GLP-1R [2]", "result": "comparable or improved"}
    ]},
    {"substance": "HAEGTFTSDESSYKEGQAAKEFIAWLVKGR (lactam (positions not given here); ends not checked; also: lactam bridge, positions not given here) [SEQ ID No: 5, cyclic GLP-1 analogue with a lactam bridge]", "values": [
      {"measurement": "specific binding to isolated islets", "setting": "[3]", "result": "appreciable specific binding"},
      {"measurement": "accumulation in kidneys and stomach", "setting": "[4]", "result": "high accumulation in kidneys and stomach"},
      {"measurement": "pancreas uptake", "setting": "[4]", "result": "no significant pancreas uptake"},
      {"measurement": "receptor activation (cAMP formation)", "setting": "GLP-1R [2]", "result": "comparable or improved"}
    ]}
  ]
}
